In paper doi:10.1101/2021.03.29.437455:

Key:
[1] = target: polo-like kinase 1 (PLK1) PBD, 345-603 (UniProt P53350); assay: isothermal titration calorimetry; conditions: reference: unphosphorylated peptide PNTSSPS; sites S379
[2] = target: PLK1 polo-box domain (PBD), PLK1 residue 345-603 (UniProt P53350); assay: ITC
[3] = target: GST-EBNA2 446-474 S457A/T465V (Epstein-Barr virus) (UniProt P12978); assay: pull-down; conditions: remark: other sources report otherwise

EBNA2 (EBV nuclear antigen 2) (from UniProt P12978) phosphopeptide PNTSpSPS
KD [1]: 8.19 µM

EBNA2 phospho-heptapeptide PNTSpSPS
Kd [2]: 8.19 µM | stoichiometry N [2]: 1

histone acetylase and co-activator p300, Q09472 1-2414
fold change of p300 binding against wt [3]: 8 to 9 fold
